The assay concerns clade A PP2Cs. Kind of assay: Yeast two-hybrid assay of PYL13 with clade A PP2Cs. The format is binding, Arabidopsis. The following applies: ABA-independent. The protocol:
To investigate how PYL13 may function in plants, the interaction between PYL13 and clade A PP2Cs in yeast two-hybrid assays was examined, as shown in FIG. 3. […] PYL13 binds strongly with ABI1, ABI2, PP2CA, and HAI2 but weakly with HAB1 and HAI1 (FIG. 3A). […] PYL13 fused to the GAL4-DNA-binding domain (BD) was used as […], and PP2Cs fused to the GAL4-activating domain (AD) were used as baits. Interaction was determined by growth assay on media lacking His and His/Ade in the presence and absence of ABA. Dilutions (10^−1, 10^−2, and 10^−3) of saturated cultures were spotted onto the plates, which were photographed after 5 days.

B1: PYL13: Arabidopsis thaliana PYR/PYL/RCAR family protein PYL13, SEQ ID NO: 1 (protein, listed as Arabidopsis thaliana)
chain: MESSKQKRCRSSVVETIEAPLPLVWSILRSFDKPQAYQRFVKSCTMRSGGGGGKGGEGKGSVRDVTLVSGFPADFSTERLEELDDESHVMVVSIIGGNHRLVNYKSKTKVVASPEDMAKKTVVVESYVVDVPEGTSEEDTIFFVDNIIRYNLTSLAKLTKKMMK
Regarding B1, the “binding in yeast two-hybrid assay” value (with ABI1, ABI2, PP2CA, and HAI2) was “strongly”; the “binding in yeast two-hybrid assay” value (with HAB1 and HAI1) was “weakly”.
